Results reported in patent US20170037111A1, “Novel peptides and combination of peptides for use in immunotherapy against ovarian cancer and other cancers” (immatics biotechnologies GmbH, priority 2015, published 2017).

Molecular target: HLA-A*02:01 (Homo sapiens, UniProt P04439, D140Y/D185E/D98H/E176V/E277Q/G131W/G231S/I119V/I121R/I166T/I218V/L300P/L318F/N151K/N90K/P208A/P217A/Q86G/Q94H/R138H/R169H/T345S)
Assay: MHC binding assay (UV-ligand exchange, β2m ELISA, peptide exchange yield)
Details: MHC class I binding score; binding to HLA-A*02:01 ranged by peptide exchange yield (UV-ligand exchange, β2m ELISA)
Outline: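 Binding is expressed as peptide exchange yield: stabilized MHC complexes were quantified by β2m ELISA, with a 450 nm TMB read-out on streptavidin-coated plates. Complexes came from UV-ligand exchange, where UV irradiation cleaves a photolabile peptide so the candidate peptide can load.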

Substance	Peptide exchange
317 (SLAALVVHV; listed as Homo sapiens) [compound 317]	″+++″ (≧50% = +++)
318 (GLINTGVLSV; listed as Homo sapiens) [compound 318]	″++″ (≧20% = ++)
320 (KMFEFVEPLL; listed as Homo sapiens) [compound 320]	″++++″ (≧75% = ++++)
321 (GLFEDVTQPGILL; listed as Homo sapiens) [compound 321]	″++++″ (≧75% = ++++)
322 (TLMTSLPAL; listed as Homo sapiens) [compound 322]	″+++″ (≧50% = +++)
324 (FLYDEIEAEV; listed as Homo sapiens) [compound 324]	″+++″ (≧50% = +++)
325 (FIMPATVADATAV; listed as Homo sapiens) [compound 325]	″+++″ (≧50% = +++)
326 (FLPEALDFV; listed as Homo sapiens) [compound 326]	″+++″ (≧50% = +++)
327 (GLAPFTEGISFV; listed as Homo sapiens) [compound 327]	″+++″ (≧50% = +++)
328 (ALNDQVFEI; listed as Homo sapiens) [compound 328]	″+++″ (≧50% = +++)
329 (FLVTLNNVEV; listed as Homo sapiens) [compound 329]	″++++″ (≧75% = ++++)
330 (QLALKVEGV; listed as Homo sapiens) [compound 330]	″+++″ (≧50% = +++)
331 (KVDTVWVNV; listed as Homo sapiens) [compound 331]	″+++″ (≧50% = +++)
332 (YLISELEAA; listed as Homo sapiens) [compound 332]	″+++″ (≧50% = +++)
333 (FLPDANSSV; listed as Homo sapiens) [compound 333]	″++″ (≧20% = ++)
334 (TLTKVLVAL; listed as Homo sapiens) [compound 334]	″+++″ (≧50% = +++)
335 (YSLSSVVTV; listed as Homo sapiens) [compound 335]	″+++″ (≧50% = +++)
336 (ILLTAIVQV; listed as Homo sapiens) [compound 336]	″+++″ (≧50% = +++)
337 (HLLSELEAAPYL; listed as Homo sapiens) [compound 337]	″++++″ (≧75% = ++++)
339 (GLWEIENNPTVKA; listed as Homo sapiens) [compound 339]	″++++″ (≧75% = ++++)
340 (ALLSMTFPL; listed as Homo sapiens) [compound 340]	″++++″ (≧75% = ++++)
341 (SQIALNEKLVNL; listed as Homo sapiens) [compound 341]	″+++″ (≧50% = +++)
342 (HIYDKVMTV; listed as Homo sapiens) [compound 342]	″+++″ (≧50% = +++)
343 (SLLEVNEESTV; listed as Homo sapiens) [compound 343]	″+++″ (≧50% = +++)
344 (YLQDQHLLLTV; listed as Homo sapiens) [compound 344]	″+++″ (≧50% = +++)
345 (VIWKALIHL; listed as Homo sapiens) [compound 345]	″+++″ (≧50% = +++)

Substance	Peptide exchange
346 (LLDSKVPSV; listed as Homo sapiens) [compound 346]	″+++″ (≧50% = +++)
347 (SLFKHDPAAWEA; listed as Homo sapiens) [compound 347]	″++++″ (≧75% = ++++)
348 (ILLDVKTRL; listed as Homo sapiens) [compound 348]	″++++″ (≧75% = ++++)
349 (SLTEYLQNV; listed as Homo sapiens) [compound 349]	″++++″ (≧75% = ++++)
350 (ALLDVTHSELTV; listed as Homo sapiens) [compound 350]	″+++″ (≧50% = +++)
351 (SLIPNLRNV; listed as Homo sapiens) [compound 351]	″+++″ (≧50% = +++)
352 (SLLELLHIYV; listed as Homo sapiens) [compound 352]	″+++″ (≧50% = +++)
353 (YLFEMDSSL; listed as Homo sapiens) [compound 353]	″++″ (≧20% = ++)
354 (LILEGVDTV; listed as Homo sapiens) [compound 354]	″++″ (≧20% = ++)
355 (SIQQSIERLLV; listed as Homo sapiens) [compound 355]	″++″ (≧20% = ++)
356 (KLLGKLPEL; listed as Homo sapiens) [compound 356]	″+++″ (≧50% = +++)
357 (SMHDLVLQV; listed as Homo sapiens) [compound 357]	″+++″ (≧50% = +++)
358 (ALDEYTSEL; listed as Homo sapiens) [compound 358]	″++++″ (≧75% = ++++)
359 (YLLPESVDL; listed as Homo sapiens) [compound 359]	″+++″ (≧50% = +++)
361 (ALYELEGTTV; listed as Homo sapiens) [compound 361]	″+++″ (≧50% = +++)
362 (TLYGLSVLL; listed as Homo sapiens) [compound 362]	″+++″ (≧50% = +++)
363 (KVLDVSDLESV; listed as Homo sapiens) [compound 363]	″++″ (≧20% = ++)
364 (LLQNEQFEL; listed as Homo sapiens) [compound 364]	″+++″ (≧50% = +++)
365 (YVIDQGETDVYV; listed as Homo sapiens) [compound 365]	″+++″ (≧50% = +++)
366 (RLLDMGETDLML; listed as Homo sapiens) [compound 366]	″+++″ (≧50% = +++)
367 (SLQNHNHQL; listed as Homo sapiens) [compound 367]	″+++″ (≧50% = +++)
369 (GLFPEHLIDV; listed as Homo sapiens) [compound 369]	″+++″ (≧50% = +++)
370 (SLLQDLVSV; listed as Homo sapiens) [compound 370]	″+++″ (≧50% = +++)
371 (FLQAHLHTA; listed as Homo sapiens) [compound 371]	″++++″ (≧75% = ++++)
372 (TMLLNIPLV; listed as Homo sapiens) [compound 372]	″++″ (≧20% = ++)
373 (SLLEDKGLAEV; listed as Homo sapiens) [compound 373]	″++″ (≧20% = ++)

Substance	Peptide exchange
374 (FLLQQHLISA; listed as Homo sapiens) [compound 374]	″++″ (≧20% = ++)
375 (SLTETIEGV; listed as Homo sapiens) [compound 375]	″++″ (≧20% = ++)
376 (AMFESSQNVLL; listed as Homo sapiens) [compound 376]	″++″ (≧20% = ++)
377 (FLLDSSASV; listed as Homo sapiens) [compound 377]	″++″ (≧20% = ++)
378 (ALGYFVPYV; listed as Homo sapiens) [compound 378]	″+++″ (≧50% = +++)
379 (IMEGTLTRV; listed as Homo sapiens) [compound 379]	″++″ (≧20% = ++)
380 (TLIEDEIATI; listed as Homo sapiens) [compound 380]	″++″ (≧20% = ++)
381 (FIDEAYVEV; listed as Homo sapiens) [compound 381]	″++″ (≧20% = ++)
382 (ALQNYIKEA; listed as Homo sapiens) [compound 382]	″++″ (≧20% = ++)
383 (ALLELENSVTL; listed as Homo sapiens) [compound 383]	″+++″ (≧50% = +++)
385 (SLLEQGLVEA; listed as Homo sapiens) [compound 385]	″++″ (≧20% = ++)
386 (ILFRYPLTI; listed as Homo sapiens) [compound 386]	″+++″ (≧50% = +++)
387 (ALFQATAEV; listed as Homo sapiens) [compound 387]	″++++″ (≧75% = ++++)
388 (SLTIDGIRYV; listed as Homo sapiens) [compound 388]	″+++″ (≧50% = +++)
389 (LLADVTHLL; listed as Homo sapiens) [compound 389]	″++″ (≧20% = ++)
390 (ALFMKQIYL; listed as Homo sapiens) [compound 390]	″+++″ (≧50% = +++)
391 (YVYPQRLNFV; listed as Homo sapiens) [compound 391]	″+++″ (≧50% = +++)
392 (ALLHPQGFEV; listed as Homo sapiens) [compound 392]	″++″ (≧20% = ++)
393 (GLLDTQTSQVLTA; listed as Homo sapiens) [compound 393]	″++″ (≧20% = ++)
394 (LLAVIGGLVYL; listed as Homo sapiens) [compound 394]	″+++″ (≧50% = +++)
396 (ALLPDLPAL; listed as Homo sapiens) [compound 396]	″+++″ (≧50% = +++)
397 (YLFGERLLEC; listed as Homo sapiens) [compound 397]	″+++″ (≧50% = +++)
398 (KLLEEDGTIITL; listed as Homo sapiens) [compound 398]	″++″ (≧20% = ++)
399 (YLFEPLYHV; listed as Homo sapiens) [compound 399]	″+++″ (≧50% = +++)
400 (SLLTEQDLWTV; listed as Homo sapiens) [compound 400]	″++″ (≧20% = ++)
